# Assay results published in the RNAGym collection of RNA variant scans (doi:10.7554/elife.90254).
# B1: OR4K15 (parent)
# chain: GUUAACGGUCAUAGGCCAUGGAAACUAGGAGCACCAUUUCGCUGCCAGUGAAGAAAUGAACAAAGAAAAUCUGGGCCAGGCAGGCAUCAAAAGAAAUAGUCUUGCGCUCAACCAGAAAGUCUGUAAUCAUUUUAAGGGUA
# Variants of: B1
# Experiment: self-cleavage, relative activity (ratio to wild type); higher = more cleavage; in vitro, sequencing; the parent is a self-cleaving ribozyme
row,Variant,self-cleavage
1,GUUAACGGUCAUAGGCCAUGGAAACUAGGAGCGCCAUUUCGCCGCCAGUGAAGAAAUGAACAAAGAAAAUCUGGGCCAGGCAGGCAUCAAAAGAAAUAGUCUUGCGCUCAACCAGAAAGUCUGUAAUCAUUUUAAGGGUA [A33G U43C],0.71
2,GUUAACGGUCAUAGGCCAUGGAAACUAGGAGCGCCAUUUCGCUGCCAGUGAAGAAAUGAACAAAGAAAAUCUGGGCCAGGCAGGCAUCGAAAGAAAUAGUCUUGCGCUCAACCAGAAAGUCUGUAAUCAUUUUAAGGGUA [A33G A89G],0.84
3,GUUAACGGUCAUAGGCCAUGGAAACUAGGAGCGCCAUUUCGCUGCCAGUGAAGAAAUGAACAAAGAAAAUCUGGGCCAGGCAGGCAUCUAAAGAAAUAGUCUUGCGCUCAACCAGAAAGUCUGUAAUCAUUUUAAGGGUA [A33G A89U],1.27
4,GUUAACGGUCAUAGGCCAUGGAAACUAGGAGCGCCAUUUCGCUGCCAGUGAAGAAAUGAACAAAGAAAAUCUGGGCCAGGCAGGCAUCAGAAGAAAUAGUCUUGCGCUCAACCAGAAAGUCUGUAAUCAUUUUAAGGGUA [A33G A90G],0.46
5,GUUAACGGUCAUAGGCCAUGGAAACUAGGAGCGCCAUUUCGCUGCCAGUGAAGAAAUGAACAAAGAAAAUCUGGGCCAGGCAGGCAUCAAAAGAAGUAGUCUUGCGCUCAACCAGAAAGUCUGUAAUCAUUUUAAGGGUA [A33G A96G],0.96
6,GUUAACGGUCAUAGGCCAUGGAAACUAGGAGCGCCAUUUCGCUGCCAGUGAACAAAUGAACAAAGAAAAUCUGGGCCAGGCAGGCAUCAAAAGAAAUAGUCUUGCGCUCAACCAGAAAGUCUGUAAUCAUUUUAAGGGUA [A33G G53C],0.81
7,GUUAACGGUCAUAGGCCAUGGAAACUAGGAGCGCCAUUUCGCUGCCAGUGAAGAAAUGAACAAAGAAAAUCUGGGCCAGGCAGGCUUCAAAAGAAAUAGUCUUGCGCUCAACCAGAAAGUCUGUAAUCAUUUUAAGGGUA [A33G A86U],0.87
8,GUUAACGGUCAUAGGCCAUGGAAACUAGGAGCGCCAUUUCGCUGCCAGUGAAGAAAUGAACAAAGAAAAUCUGGGCCAGGCAGGCAUCAAAAGAAAUAGUCUUGCGCUCAACCAGAAAGUCUGUAAUCAUUUUAUGGGUA [A33G A135U],0.95
9,GUUAACGGUCAUAGGCCAUGGAAACUAGGAGCGCCAUUUCGCUGCCAGUGAAGAAAUGAACAAAGAAAAUCUGGGCCAGGCAGGCAUCAAAAGUAAUAGUCUUGCGCUCAACCAGAAAGUCUGUAAUCAUUUUAAGGGUA [A33G A94U],0.59
10,GUUAACGGUCAUAGGCCAUGGAAACUAGGAGCGCCAUUUCGCUGCCAGUGAAGAAAUGAACAAAGAAAAUCAGGGCCAGGCAGGCAUCAAAAGAAAUAGUCUUGCGCUCAACCAGAAAGUCUGUAAUCAUUUUAAGGGUA [A33G U72A],0.12
11,GUUAACGGUCAUAGGCCAUGGAAACUAGGAGCGCCAUUUCGCUGCCAGUGAAGAAAUGAACAAAGAAAAUCGGGGCCAGGCAGGCAUCAAAAGAAAUAGUCUUGCGCUCAACCAGAAAGUCUGUAAUCAUUUUAAGGGUA [A33G U72G],0.14
12,GUUAACGGUCAUAGGCCAUGGAAACUAGGAGCGCCAUUUCGCUGCCAGUGAAGAAAUGAACAAAGAAAAUCCGGGCCAGGCAGGCAUCAAAAGAAAUAGUCUUGCGCUCAACCAGAAAGUCUGUAAUCAUUUUAAGGGUA [A33G U72C],0.12
13,GUUAACGGUCAUAGGCCAUGGAAACUAGGAGCGCCAUUUCGCUGCCAGUGAAGAAAUGAACAAAGAAAAUCUGGGCCAGGCAGGCAUCAAAAGAAAUAGUCUUGCGCUCAACCAUAAAGUCUGUAAUCAUUUUAAGGGUA [A33G G115U],0.06
14,GUUAACGGUCAUAGGCCAUGGAAACUAGGAGCGCCAUUUCGCUGCCAGUGAAGAAAUGAACAAAGAAAAUCUGGGCCAGGCAGGCAUCAAGAGAAAUAGUCUUGCGCUCAACCAGAAAGUCUGUAAUCAUUUUAAGGGUA [A33G A91G],0.29
15,GUUAACGGUCAUAGGCCAUGGAAACUAGGAGCGCCAUUUCGCUGCCAGUGAAGAAAUGAACAAAGAAAAUCUGGGCCAGGCAGGCAUCAAAAGAAAUAGUCUUGCGCUCAACCAGAAAGUCUGUAAUCAUUUUAAGGAUA [A33G G138A],0.65
16,GUUAACGGUCAUAGGCCAUGGAAACUAGGAGCGCCAUUUCGCUGCCAGUGAAGAAAUGAACAAAGAAAAUCUGGGCCAGGCAGGCAUCAAAAGAAAUAGUCUUGCGCUCAACCAGAAAGUCUGUAAUCCUUUUAAGGGUA [A33G A129C],0.63
17,GUUAACGGUCAUAGGCCAUGGAAACUAGGAGCGCCAUUUCGCUGCCAGUGAAGAAAUGAACAAAGAAAAUCUGGGCCAGGCAGGCAUCAAAAGAAAUUGUCUUGCGCUCAACCAGAAAGUCUGUAAUCAUUUUAAGGGUA [A33G A98U],1.19
18,GUUAACGGUCAUAGGCCAUGGAAACUAGGAGCGCCAUUUCGCUGCCAGUGAAGAAAUGAACAAAGAAAACCUGGGCCAGGCAGGCAUCAAAAGAAAUAGUCUUGCGCUCAACCAGAAAGUCUGUAAUCAUUUUAAGGGUA [A33G U70C],0.22
19,GUUAACGGUCAUAGGCCAUGGAAACUAGGAGCGCCAUUUCGCUGCCAGUGAAGAAAUGAACAAAGAAAAUCUGGGCCAGGCAGGCAUCAAAUGAAAUAGUCUUGCGCUCAACCAGAAAGUCUGUAAUCAUUUUAAGGGUA [A33G A92U],0.42
20,GUUAACGGUCAUAGGCCAUGGAAACUAGGAGCGCCAUUUCGCUGCCAGUGAAGAAAUGAACAAAGAAAAUCUGGGCCAGGCGGGCAUCAAAAGAAAUAGUCUUGCGCUCAACCAGAAAGUCUGUAAUCAUUUUAAGGGUA [A33G A82G],0.35
